Measurements: PMC8481266, “Structural and functional characterization of the bacterial biofilm activator RemA” (Nature Communications, 2021)
Where a chain is given by its changes, count along the chain named. Values joined by “and” are separate entries in the source; they are usually repeats but may differ in a detail not shown here. Equal values may be shown once. Blank lines part the entries; values can stand above or below the molecule they belong to.

Columns and labels:
[1] = molecular target: (Gt)RemA, RemA from Geobacillus thermodenitrificans, wild type, with N-terminal His-tag (Geobacillus thermodenitrificans NG-80); test: SEC-MALS; analytical SEC-MALS of the two major SEC peaks; (Gt)RemA at 500 µM (Fig. 1b); R18W variant in Supplementary Fig. 1d
[2] = molecular target: (Gt)RemA, RemA from Geobacillus thermodenitrificans, wild type, with N-terminal His-tag (Geobacillus thermodenitrificans NG-80); test: crystal structure; sitting-drop crystallisation at 20 °C; X-ray data at ESRF; wild type by Se-SAD, variants by molecular replacement
[3] = molecular target: (Gt)RemA, RemA from Geobacillus thermodenitrificans, wild type, with N-terminal His-tag (Geobacillus thermodenitrificans NG-80); test: as above; remark: listed apart in the source
[4] = molecular target: T1, (Gt)RemA wild type, His-tagged (Geobacillus thermodenitrificans NG-80) (UniProt A4IM41); test: EMSA; conditions: 20 mM HEPES pH 8.0, 1000 mM NaCl, 20 mM MgCl2, 20 mM KCl, 0.3 ug/ml BSA, 25 ug/ml herring sperm DNA, 10% glycerol, 0.25 mg/ml Orange-G; 1 pmol DNA in 14.5 ul …
T1 sequence: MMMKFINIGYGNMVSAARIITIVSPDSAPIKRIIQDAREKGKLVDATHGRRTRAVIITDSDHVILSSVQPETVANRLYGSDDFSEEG

[5] = molecular target: T2, (Gt)RemA wild type, tag-free (Geobacillus thermodenitrificans NG-80) (UniProt A4IM41); test: EMSA; conditions: 20 mM HEPES pH 8.0, 1000 mM NaCl, 20 mM MgCl2, 20 mM KCl, 0.3 ug/ml BSA, 25 ug/ml herring sperm DNA, 10% glycerol, 0.25 mg/ml Orange-G; 1 pmol DNA in 14.5 ul …
T2 sequence: T1 sequence

[6] = molecular target: T3, (Gt)RemA-R18W R18W (Geobacillus thermodenitrificans NG-80) (UniProt A4IM41); test: EMSA; conditions: 20 mM HEPES pH 8.0, 1000 mM NaCl, 20 mM MgCl2, 20 mM KCl, 0.3 ug/ml BSA, 25 ug/ml herring sperm DNA, 10% glycerol, 0.25 mg/ml Orange-G; 1 pmol DNA in 14.5 ul …
T3 sequence: T1 sequence with R18W

[7] = molecular target: T4, (Gt)RemA-R50A R50A (Geobacillus thermodenitrificans NG-80) (UniProt A4IM41); test: EMSA; conditions: 20 mM HEPES pH 8.0, 1000 mM NaCl, 20 mM MgCl2, 20 mM KCl, 0.3 ug/ml BSA, 25 ug/ml herring sperm DNA, 10% glycerol, 0.25 mg/ml Orange-G; 1 pmol DNA in 14.5 ul …
T4 sequence: T1 sequence with R50A

[8] = molecular target: T5, (Gt)RemA-R51A R51A (Geobacillus thermodenitrificans NG-80) (UniProt A4IM41); test: EMSA; conditions: 20 mM HEPES pH 8.0, 1000 mM NaCl, 20 mM MgCl2, 20 mM KCl, 0.3 ug/ml BSA, 25 ug/ml herring sperm DNA, 10% glycerol, 0.25 mg/ml Orange-G; 1 pmol DNA in 14.5 ul …
T5 sequence: T1 sequence with R51A

[9] = molecular target: (Gt)RemA-R51A/R53A (Geobacillus thermodenitrificans NG-80); test: crystal structure; sitting-drop crystallisation at 20 °C; X-ray data at ESRF; wild type by Se-SAD, variants by molecular replacement
[10] = molecular target: (His)-GB1-tagged (Gt)RemA (Geobacillus thermodenitrificans NG-80); test: SEC; SEC analysis of the (His)-GB1 constructs of (Bs)RemA and (Gt)RemA (Supplementary Figs. 2a, b)
[11] = molecular target: (Gt)RemA-R18W (Geobacillus thermodenitrificans NG-80); test: SEC-MALS; analytical SEC-MALS of the two major SEC peaks; (Gt)RemA at 500 µM (Fig. 1b); R18W variant in Supplementary Fig. 1d
[12] = molecular target: (Gt)RemA-R18W (Geobacillus thermodenitrificans NG-80); test: crystal structure; sitting-drop crystallisation at 20 °C; X-ray data at ESRF; wild type by Se-SAD, variants by molecular replacement
[13] = molecular target: the molecule itself; test: SEC; SEC analysis of the (His)-GB1 constructs of (Bs)RemA and (Gt)RemA (Supplementary Figs. 2a, b)

stoichiometry N [1]: 16 and 8 | stoichiometry N [2]: 16 | stoichiometry N [3]: 8
Molecule: (Gt)RemA, RemA from Geobacillus thermodenitrificans, wild type, with N-terminal His-tag (natural protein)

Molecule: CTCCTCTATTCCTGTCGTTATTTCGTTCATTATAAGGAATTTTTCGTTCTTTATAAAATTTAAAATAATAAGGGAAGTGCAGTAAATTAGAGGAAAATCATGATTTTGTTCTCCAAAGAGAACTTATTGGCTTATTTTGCAATTTTTAAATAATAACGTTTTCTTTTATAATCCAATCATTAACAGAAAGGGGCGCGGGAAGCCAGCCGCGGGAAGGCTGAAGGCTATGAATACATGAATGAGAATATGAGTTTCAAAGAATTATATGCGATTGTCAGACACAGATTCG (double strand) [PepsA 289 bp fragment]
binding [4]: binds | binding [5]: binds | binding [6]: binds | binding [7]: no binding | binding [8]: no binding

stoichiometry N [9]: 8
Molecule: (Gt)RemA-R51A/R53A (natural protein)

stoichiometry N [10]: 8
Molecule: (His)-GB1-tagged (Gt)RemA (natural protein)

stoichiometry N [11]: 14 and 7 | stoichiometry N [12]: 7
Molecule: (Gt)RemA-R18W (natural protein)

B1: (His)-GB1-tagged (Bs)RemA (natural protein, B. subtilis strain 3610, UniProt Q7WY72 1-89, looked up)
chain: MTIKLINIGFGNIISANRMISIVSPESAPIKRMIQDARDRGMLIDATYGRRTRAVVVMDSDHIILSAVQPETVAHRLSVKEEIMDEGQG
notes: RemA of Bacillus subtilis strain 3610; MW 9.6 kDa; A TEV cleavage site stands between the solubility tag and RemA; removal of the tag led to precipitation; also called His-GB1-(Bs)RemA; (Bs)RemA (His)-GB1 construct; not shown: His, N-terminal, kept
stoichiometry N [13]: 8
